# Data from publication PMC7466717, “PPARγ Transcription Deficiency Exacerbates High-Fat Diet-Induced Adipocyte Hypertrophy and Insulin Resistance in Mice” (Frontiers in Pharmacology, 2020).
# Ends that are not written are not given here.
# Molecular target: T1, H6-PPARγ CDE wild-type (human PPARγ, domains from DBD to the C-terminus, residues 103–477) (human, UniProt P37231-2 103-477)
# T1 construct: Human PPARγ, CDE domains (DBD, hinge, LBD to the C-terminus), residues 103-477; a C-terminus at 477 fits the 477-residue PPARγ1 isoform; Expressed from pET24a as an N-terminal 6xHis fusion; also called H6-PPARγ CDE WT; PPARγ CDE WT; source: E. coli BL21(DE3), purified (Ni HiTrap HP, SP-Sepharose); not shown: His6, N-terminal, kept
# T1 sequence (looked up): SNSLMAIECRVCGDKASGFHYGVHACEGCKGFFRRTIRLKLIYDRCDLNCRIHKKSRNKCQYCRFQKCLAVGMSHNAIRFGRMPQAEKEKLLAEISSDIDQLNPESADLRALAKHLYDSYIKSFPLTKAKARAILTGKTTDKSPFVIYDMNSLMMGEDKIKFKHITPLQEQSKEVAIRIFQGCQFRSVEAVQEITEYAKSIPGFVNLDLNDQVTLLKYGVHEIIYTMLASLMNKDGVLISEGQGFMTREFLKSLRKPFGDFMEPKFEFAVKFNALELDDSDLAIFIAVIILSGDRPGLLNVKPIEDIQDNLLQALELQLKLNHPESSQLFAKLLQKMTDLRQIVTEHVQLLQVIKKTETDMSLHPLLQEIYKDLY
# Experiment: AlphaScreen or HTRF; 100 nM H6-PPARγ CDE, 100 nM biotin-labeled peptide, gradient doses of rosiglitazone; hexahistidine detection kit (Perkin-Elmer); 50 mmol/L MOPS, 50 mmol/L NaF, 0.05 mmol/L CHAPS, 0.1 mg/ml bovine serum albumin, pH 7.4
# Details: both partners purified
row,Binder,binding result
1,"SPSSHSSLTERHKILHRLLQEGSP (also: biotin label, position not given here) [biotin-labeled SRC1-2 coactivator peptide]",binds
2,"QEPVSPKKKENALLRYLLDKDDTKD (also: biotin label, position not given here) [biotin-labeled SRC2-3 coactivator peptide]",binds
3,"GHSFADPASNLGLEDIIRKALMGSF (also: biotin label, position not given here, not the gene NCOR2/SMRT) [biotin-labeled NCoR-2 corepressor peptide]",binds
